The values below come from publication PMC8913689.

The target of this test is HA-metabotropic glutamate receptor 3, Q14832. Description: AFM single-molecule force spectroscopy (AFM-SMFS); living WTT-CHO cells transfected with 1 µg of HA-GPCR vector, basal state, 37 °C; anti-HA antibody on the AFM tip pulls the HA-receptor out of the membrane; unfolding distances fitted by a Gaussian mixture (BIC) and each population assigned to an oligomeric state by the receptor's theoretical …. The settings on record: remark: other sources report otherwise.

B1: HA-metabotropic glutamate receptor 3, Q14832 23-879 (receptor)
chain: LGDHNFLRREIKIEGDLVLGGLFPINEKGTGTEECGRINEDRGIQRLEAMLFAIDEINKDDYLLPGVKLGVHILDTCSRDTYALEQSLEFVRASLTKVDEAEYMCPDGSYAIQENIPLLIAGVIGGSYSSVSIQVANLLRLFQIPQISYASTSAKLSDKSRYDYFARTVPPDFYQAKAMAEILRFFNWTYVSTVASEGDYGETGIEAFEQEARLRNICIATAEKVGRSNIRKSYDSVIRELLQKPNARVVVLFMRSDDSRELIAAASRANASFTWVASDGWGAQESIIKGSEHVAYGAITLELASQPVRQFDRYFQSLNPYNNHRNPWFRDFWEQKFQCSLQNKRNHRRVCDKHLAIDSSNYEQESKIMFVVNAVYAMAHALHKMQRTLCPNTTKLCDAMKILDGKKLYKDYLLKINFTAPFNPNKDADSIVKFDTFGDGMGRYNVFNFQNVGGKYSYLKVGHWAETLSLDVNSIHWSRNSVPTSQCSDPCAPNEMKNMQPGDVCCWICIPCEPYEYLADEFTCMDCGSGQWPTADLTGCYDLPEDYIRWEDAWAIGPVTIACLGFMCTCMVVTVFIKHNNTPLVKASGRELCYILLFGVGLSYCMTFFFIAKPSPVICALRRLGLGSSFAICYSALLTKTNCIARIFDGVKNGAQRPKFISPSSQVFICLGLILVQIVMVSVWLILEAPGTRRYTLAEKRETVILKCNVKDSSMLISLTYDVILVILCTVYAFKTRKCPENFNEAKFIGFTMYTTCIIWLAFLPIFYVTSSDYRVQTTTMCISVSLSGFVVLGCLFAPKVHIILFQPQKNVVTHRLHLNRFSVSGTGTTYSQSSASTYVPTVCNGREVLDSTTSSL
The stoichiometry N is a count of units in the complex or per binding partner. On to B1, for which the stoichiometry N was found to be 2.
